Laboratory results as given in PMC3683064 (PLoS ONE, 2013).

How the values were obtained:
Lcc4A = target: T1, Lcc4A (Lentinula edodes, UniProt R9WT55); experiment: ABTS oxidation in presence of co-solvent; format: biochemical; conditions: 1 mM ABTS, 1x McIlvaine buffer pH 4, 30 °C; co-solvent effect, non-specific
T1 construct: full cDNA ORF (527 residues) in pPIC3.5K, secreted from Pichia pastoris GS115 and purified; signal peptide predicted
T1 sequence (R9WT55 18-527): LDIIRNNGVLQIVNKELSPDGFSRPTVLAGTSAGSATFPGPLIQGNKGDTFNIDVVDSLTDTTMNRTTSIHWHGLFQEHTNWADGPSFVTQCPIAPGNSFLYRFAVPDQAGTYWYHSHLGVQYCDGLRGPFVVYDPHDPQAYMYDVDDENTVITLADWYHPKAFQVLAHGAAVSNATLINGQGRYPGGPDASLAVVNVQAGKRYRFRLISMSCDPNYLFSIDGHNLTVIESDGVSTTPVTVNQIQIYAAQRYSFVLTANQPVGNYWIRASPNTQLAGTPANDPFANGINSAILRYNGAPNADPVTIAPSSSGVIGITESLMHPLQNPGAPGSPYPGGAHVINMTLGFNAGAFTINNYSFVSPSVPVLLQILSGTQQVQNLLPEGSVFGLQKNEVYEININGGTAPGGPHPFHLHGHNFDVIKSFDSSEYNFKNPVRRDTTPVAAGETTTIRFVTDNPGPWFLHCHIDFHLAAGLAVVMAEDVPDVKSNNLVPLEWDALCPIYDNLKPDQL
Source text: ABTS oxidation in presence of co-solvent on Lcc4A

Lcc5 = target: T2, Lcc5 (Lentinula edodes, UniProt R9WU11); experiment: ABTS oxidation in presence of co-solvent; format: biochemical; conditions: 1 mM ABTS, 1x McIlvaine buffer pH 4, 30 °C; co-solvent effect, non-specific
T2 construct: full cDNA ORF (515 residues) in pPIC3.5K, secreted from Pichia pastoris GS115 and purified; signal peptide predicted
T2 sequence (R9WU11 22-515): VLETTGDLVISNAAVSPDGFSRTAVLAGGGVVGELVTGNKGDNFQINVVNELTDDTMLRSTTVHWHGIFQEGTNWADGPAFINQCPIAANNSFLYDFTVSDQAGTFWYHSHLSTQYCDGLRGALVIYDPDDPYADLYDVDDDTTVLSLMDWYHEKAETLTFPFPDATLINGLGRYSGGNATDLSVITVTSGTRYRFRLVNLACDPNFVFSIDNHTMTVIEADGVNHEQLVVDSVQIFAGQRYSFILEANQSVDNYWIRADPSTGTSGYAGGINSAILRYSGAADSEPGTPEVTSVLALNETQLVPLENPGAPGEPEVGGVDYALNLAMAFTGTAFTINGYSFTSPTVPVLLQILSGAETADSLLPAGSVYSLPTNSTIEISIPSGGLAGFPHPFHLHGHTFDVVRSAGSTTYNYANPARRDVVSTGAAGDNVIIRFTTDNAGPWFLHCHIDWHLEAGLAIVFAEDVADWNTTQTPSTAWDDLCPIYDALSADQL
Source text: ABTS oxidation in presence of co-solvent on Lcc5

Lcc7 = target: T3, Lcc7 (Lentinula edodes, UniProt R9WS76); experiment: ABTS oxidation in presence of co-solvent; format: biochemical; conditions: 1 mM ABTS, 1x McIlvaine buffer pH 4, 30 °C; co-solvent effect, non-specific
T3 construct: full cDNA ORF (560 residues) in pPIC3.5K, secreted from Pichia pastoris GS115 and purified; signal peptide predicted
T3 sequence (R9WS76 30-560): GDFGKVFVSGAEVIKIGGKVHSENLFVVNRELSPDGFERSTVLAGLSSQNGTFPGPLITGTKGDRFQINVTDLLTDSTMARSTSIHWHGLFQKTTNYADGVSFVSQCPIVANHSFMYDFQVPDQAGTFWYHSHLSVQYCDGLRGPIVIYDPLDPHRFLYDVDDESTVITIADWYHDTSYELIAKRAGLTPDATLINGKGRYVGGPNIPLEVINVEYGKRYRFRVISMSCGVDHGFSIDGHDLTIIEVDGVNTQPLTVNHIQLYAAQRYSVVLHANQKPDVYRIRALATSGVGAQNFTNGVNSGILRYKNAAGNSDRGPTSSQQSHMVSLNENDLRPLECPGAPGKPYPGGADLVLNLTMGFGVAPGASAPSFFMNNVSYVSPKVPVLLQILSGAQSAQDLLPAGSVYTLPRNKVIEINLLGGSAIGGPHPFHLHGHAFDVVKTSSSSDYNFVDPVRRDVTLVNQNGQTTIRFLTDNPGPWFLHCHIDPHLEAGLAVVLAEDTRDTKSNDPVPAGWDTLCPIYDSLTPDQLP
Source text: ABTS oxidation in presence of co-solvent on Lcc7

purified protein [1] = substrate: CCn1c(=NN=c2sc3cc(S(=O)(=O)O)ccc3n2CC)sc2cc(S(=O)(=O)O)ccc21; experiment: purified protein; format: biochemical, Lentinula edodes; conditions: 1x McIlvaine buffer pH 4, 30 °C
[2] = substrate: Oc1ccccc1O; experiment: spectrophotometric oxidation assay; format: biochemical, Lentinula edodes; conditions: 1x McIlvaine buffer pH 4, 30 °C
Source text: (§1) spectrophotometric oxidation assay on Lcc4A

[3] = substrate: N[C@@H](Cc1ccc(O)c(O)c1)C(=O)O; experiment: spectrophotometric oxidation assay; format: biochemical, Lentinula edodes; conditions: 1x McIlvaine buffer pH 4, 30 °C
Source text: as §1

[4] = substrate: COc1cccc(OC)c1O; experiment: spectrophotometric oxidation assay; format: biochemical, Lentinula edodes; conditions: 1x McIlvaine buffer pH 4, 30 °C
Source text: as §1

purified protein [5] = substrate: COc1ccccc1O; experiment: purified protein; conditions: 1x McIlvaine buffer pH 4, 30 °C
[6] = substrate: Oc1ccccc1O; experiment: spectrophotometric oxidation assay; format: biochemical, Lentinula edodes; conditions: 1x McIlvaine buffer pH 4, 30 °C; remark: listed apart in the source
Source text: (§2) spectrophotometric oxidation assay on Lcc5

[7] = substrate: N[C@@H](Cc1ccc(O)c(O)c1)C(=O)O; experiment: spectrophotometric oxidation assay; format: biochemical, Lentinula edodes; conditions: 1x McIlvaine buffer pH 4, 30 °C; remark: listed apart in the source
Source text: as §2

[8] = substrate: COc1cccc(OC)c1O; experiment: spectrophotometric oxidation assay; format: biochemical, Lentinula edodes; conditions: 1x McIlvaine buffer pH 4, 30 °C; remark: listed apart in the source
Source text: as §2

[9] = substrate: Oc1ccccc1O; experiment: spectrophotometric oxidation assay; format: biochemical, Lentinula edodes; conditions: 1x McIlvaine buffer pH 4, 30 °C; remark: listed apart in the source
Source text: (§3) spectrophotometric oxidation assay on Lcc7

[10] = substrate: COc1cccc(OC)c1O; experiment: spectrophotometric oxidation assay; format: biochemical, Lentinula edodes; conditions: 1x McIlvaine buffer pH 4, 30 °C; remark: listed apart in the source
Source text: as §3

CO [MeOH]
IC50 ^d (v/v %) / MeOH (Lcc4A): 28 v/v %

CCO [EtOH]
IC50 ^d (v/v %) / ACN (Lcc5): 18 v/v % | IC50 ^d (v/v %) / EtOH (Lcc7): 22 v/v %

CC#N [ACN]
IC50 ^d (v/v %) / ACN (Lcc4A): 30 v/v % | IC50 ^d (v/v %) / ACN (Lcc5): 18 v/v % | IC50 ^d (v/v %) / ACN (Lcc7): 17 v/v %

B1: Lcc4A (Lentinula edodes) (protein)
chain: LDIIRNNGVLQIVNKELSPDGFSRPTVLAGTSAGSATFPGPLIQGNKGDTFNIDVVDSLTDTTMNRTTSIHWHGLFQEHTNWADGPSFVTQCPIAPGNSFLYRFAVPDQAGTYWYHSHLGVQYCDGLRGPFVVYDPHDPQAYMYDVDDENTVITLADWYHPKAFQVLAHGAAVSNATLINGQGRYPGGPDASLAVVNVQAGKRYRFRLISMSCDPNYLFSIDGHNLTVIESDGVSTTPVTVNQIQIYAAQRYSFVLTANQPVGNYWIRASPNTQLAGTPANDPFANGINSAILRYNGAPNADPVTIAPSSSGVIGITESLMHPLQNPGAPGSPYPGGAHVINMTLGFNAGAFTINNYSFVSPSVPVLLQILSGTQQVQNLLPEGSVFGLQKNEVYEININGGTAPGGPHPFHLHGHNFDVIKSFDSSEYNFKNPVRRDTTPVAAGETTTIRFVTDNPGPWFLHCHIDFHLAAGLAVVMAEDVPDVKSNNLVPLEWDALCPIYDNLKPDQL
notes: full cDNA ORF (527 residues) in pPIC3.5K, secreted from Pichia pastoris GS115 and purified; signal peptide predicted
Km (purified protein [1]): 11.2 ± 0.9 µM | Vmax (purified protein [1]): 0.61 µmol/min/mg | Vmax/Km (purified protein [1]): 54400 µL/min/mg | Km [2]: 255 ± 76 µM | Vmax [2]: 0.91 µmol/min/mg | Vmax/Km [2]: 3720 µL/min/mg | Km [3]: 1040 ± 150 µM | Vmax [3]: 1.07 µmol/min/mg | Vmax/Km [3]: 1030 µL/min/mg | Km [4]: 26.0 ± 2.4 µM | Vmax [4]: 0.26 µmol/min/mg | Vmax/Km [4]: 10000 µL/min/mg | Km (purified protein [5]): 648 ± 105 µM | Vmax (purified protein [5]): 0.16 µmol/min/mg | Vmax/Km (purified protein [5]): 246 µL/min/mg

B2: Lcc5 (Lentinula edodes) (protein)
chain: VLETTGDLVISNAAVSPDGFSRTAVLAGGGVVGELVTGNKGDNFQINVVNELTDDTMLRSTTVHWHGIFQEGTNWADGPAFINQCPIAANNSFLYDFTVSDQAGTFWYHSHLSTQYCDGLRGALVIYDPDDPYADLYDVDDDTTVLSLMDWYHEKAETLTFPFPDATLINGLGRYSGGNATDLSVITVTSGTRYRFRLVNLACDPNFVFSIDNHTMTVIEADGVNHEQLVVDSVQIFAGQRYSFILEANQSVDNYWIRADPSTGTSGYAGGINSAILRYSGAADSEPGTPEVTSVLALNETQLVPLENPGAPGEPEVGGVDYALNLAMAFTGTAFTINGYSFTSPTVPVLLQILSGAETADSLLPAGSVYSLPTNSTIEISIPSGGLAGFPHPFHLHGHTFDVVRSAGSTTYNYANPARRDVVSTGAAGDNVIIRFTTDNAGPWFLHCHIDWHLEAGLAIVFAEDVADWNTTQTPSTAWDDLCPIYDALSADQL
notes: full cDNA ORF (515 residues) in pPIC3.5K, secreted from Pichia pastoris GS115 and purified; signal peptide predicted
Km [6]: 6280 ± 680 µM | Vmax [6]: 2.65 µmol/min/mg | Vmax/Km [6]: 424 µL/min/mg | Km [7]: 10500 ± 700 µM | Vmax [7]: 1.66 µmol/min/mg | Vmax/Km [7]: 158 µL/min/mg | Km [8]: 113 ± 8 µM | Vmax [8]: 0.6 µmol/min/mg | Vmax/Km [8]: 5300 µL/min/mg | Km (purified protein [1]): 325 ± 47 µM | Vmax (purified protein [1]): 2.26 µmol/min/mg | Vmax/Km (purified protein [1]): 6940 µL/min/mg | Km (purified protein [5]): 1270 ± 90 µM | Vmax (purified protein [5]): 0.32 µmol/min/mg | Vmax/Km (purified protein [5]): 257 µL/min/mg

B3: Lcc7 (Lentinula edodes) (protein)
chain: GDFGKVFVSGAEVIKIGGKVHSENLFVVNRELSPDGFERSTVLAGLSSQNGTFPGPLITGTKGDRFQINVTDLLTDSTMARSTSIHWHGLFQKTTNYADGVSFVSQCPIVANHSFMYDFQVPDQAGTFWYHSHLSVQYCDGLRGPIVIYDPLDPHRFLYDVDDESTVITIADWYHDTSYELIAKRAGLTPDATLINGKGRYVGGPNIPLEVINVEYGKRYRFRVISMSCGVDHGFSIDGHDLTIIEVDGVNTQPLTVNHIQLYAAQRYSVVLHANQKPDVYRIRALATSGVGAQNFTNGVNSGILRYKNAAGNSDRGPTSSQQSHMVSLNENDLRPLECPGAPGKPYPGGADLVLNLTMGFGVAPGASAPSFFMNNVSYVSPKVPVLLQILSGAQSAQDLLPAGSVYTLPRNKVIEINLLGGSAIGGPHPFHLHGHAFDVVKTSSSSDYNFVDPVRRDVTLVNQNGQTTIRFLTDNPGPWFLHCHIDPHLEAGLAVVLAEDTRDTKSNDPVPAGWDTLCPIYDSLTPDQLP
notes: full cDNA ORF (560 residues) in pPIC3.5K, secreted from Pichia pastoris GS115 and purified; signal peptide predicted
Km [9]: 38800 ± 5300 µM | Vmax [9]: 0.53 µmol/min/mg | Vmax/Km [9]: 13.8 µL/min/mg | Km [10]: 12000 ± 1000 µM | Vmax [10]: 1.73 µmol/min/mg | Vmax/Km [10]: 144 µL/min/mg | Km (purified protein [1]): 36.3 ± 1.9 µM | Vmax (purified protein [1]): 19.7 µmol/min/mg | Vmax/Km (purified protein [1]): 543000 µL/min/mg | Km (purified protein [5]): 8630 ± 2120 µM | Vmax (purified protein [5]): 0.18 µmol/min/mg | Vmax/Km (purified protein [5]): 21.4 µL/min/mg
